Earlier results in PMC4465046.

Biological target: HIV-1 protease (Human immunodeficiency virus 1) (UniProt O93215)

Which Kd does the source give for HIV-1 protease (from UniProt O93215) here?
Its Kd is 6.8 nM.
